{"source": "patent US20200095333A1", "about": "(published 2020)", "key": {"[1]": {"molecular_target": "T1, sCD16A (soluble CD16A, FcgammaRIIIA) (human, UniProt P08637 17-208)", "T1 construct": "extracellular domain; given only as soluble; used immobilised (SPR), coated, or biotin/HRP-labelled as probe (ELISA); also called CD16 antigen; sCD16A-Biotin", "T1 sequence (P08637 17-208)": "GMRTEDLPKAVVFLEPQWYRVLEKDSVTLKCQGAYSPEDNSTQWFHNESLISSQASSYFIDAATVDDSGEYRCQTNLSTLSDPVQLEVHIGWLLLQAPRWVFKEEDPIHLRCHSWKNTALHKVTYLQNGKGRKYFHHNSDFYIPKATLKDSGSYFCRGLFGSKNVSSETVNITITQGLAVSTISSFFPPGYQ", "test": "SPR (BIAcore), receptor immobilised, diabody 6.25-200 nM"}, "[2]": {"molecular_target": "T2, sCD32B (soluble CD32B, FcgammaRIIB) (human, UniProt P31994 43-217)", "T2 construct": "extracellular domain; also called soluble CD32B ectodomain", "T2 sequence": "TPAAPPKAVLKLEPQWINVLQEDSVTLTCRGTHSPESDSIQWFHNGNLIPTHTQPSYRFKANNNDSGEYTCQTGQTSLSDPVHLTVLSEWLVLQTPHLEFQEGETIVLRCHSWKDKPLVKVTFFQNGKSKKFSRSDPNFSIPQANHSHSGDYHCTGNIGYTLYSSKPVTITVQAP", "test": "SPR (BIAcore), receptor immobilised, diabody 6.25-200 nM"}, "[3]": {"molecular_target": "T3, sCD32A (soluble CD32A, negative control receptor) (UniProt P12318 34-217)", "T3 construct": "extracellular domain", "T3 sequence": "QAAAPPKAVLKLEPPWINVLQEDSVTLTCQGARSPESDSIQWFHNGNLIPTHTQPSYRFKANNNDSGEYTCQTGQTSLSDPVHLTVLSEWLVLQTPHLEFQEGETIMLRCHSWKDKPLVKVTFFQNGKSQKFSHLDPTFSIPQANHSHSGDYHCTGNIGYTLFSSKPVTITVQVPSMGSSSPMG", "test": "SPR (BIAcore), receptor immobilised"}}, "data": [{"binder": "h2B6-h3G8 CBD (covalent bispecific diabody, constructs 1 and 2) (bispecific antibody, also called h2B6-h3G8 diabody; h2B6-h3G8 covalent heterodimer) chain 1: EIVLTQSPDFQSVTPKEKVTFTCRTSQSIGTNIHWYQQKPDQSPKLLIKEVSESISGVPSRFSGSGSGTDFTLTINSLEAEDAATYYCQQSNTWPFTFGGGTKVEIKGGGSGGGGQVTLRESGPALVKPTQTLTLTCTFSGFSLSTSGMGVGWIRQPPGKALEWLAHIWWDDDKRYNPALKSRLTISKDTSKNQVVLTMTNMDPVDTATYYCAQINPAWFAYWGQGTLVTVSSLGGC chain 2: DIVMTQSPDSLAVSLGERATINCKASQSVDFDGDSFMNWYQQKPGQPPKLLIYTTSNLESGVPDRFSGSGSGTDFTLTISSLQAEDVAVYYCQQSNEDPYTFGQGTKLEIKGGGSGGGGQVQLVQSGAEVKKPGASVKVSCKASGYTFTNYWIHWVRQAPGQGLEWIGVIDPSDTYPNYNKKFKGRVTMTVVVSTSTAYMELRSLRSDDTAVYYCARNGDSDYYSGMDYWGQGTTVTVSSLGGC", "values": [{"measurement": "Kd", "setting": "[1]", "value": 22.7, "unit": "nM"}, {"measurement": "Kd", "setting": "[2]", "value": 15, "unit": "nM"}, {"measurement": "binding result", "setting": "[3]", "value": "no binding (tested: 100 nM)"}]}]}
